Ends that are not written are not given here. Compound 1 = not defined here
Legend:
[1] = 99mTc labelling of Compound 9, radiochemical purity by ITLC and HPLC (Example 13); format: physicochemical
Description: Compound 9 was prepared in an analogous manner to Examples 7 and 8, and labelled with ^99mTc in solution (Preparation 1) or via a freeze-dried kit according to Example 10 (Preparation 2).
For Preparation 1, 100 μg of Compound 9 was dissolved in 1 ml of pH 8.5 borate buffer. This was transferred to a P6 vial and sealed. 1 ml ^99mTc-pertechnetate in saline (1.0 GBq/ml, from an Amertec II generator) was added at room temperature, together with 0.1 ml SnCl2 solution (10 mg SnCl2 in 100 ml N2 purged saline). The activity was measured using an ion chamber. The RCP was measured using ITLC and HPLC.

[2] = 99mTc labelling of Compound 5, radiochemical purity by ITLC and HPLC (Example 11); format: physicochemical
Description: A freeze-dried formulation containing: • 50 μg PABA (para-aminobenzoic acid), • 30 μg SnCl2, • 90 μg MDP (methylenediphosphonic acid), • 1.32 mg NaHCO3, • 98 μg Na2CO3, • 4 mg NaOAc, was sealed under nitrogen gas in a 10 ml glass vial. The vial was removed from freezer storage and left at room temperature for 15 minutes, and was then reconstituted with 100 μl of a solution containing Compound 5, ie. the peptide-chelator conjugate Ac-Asn-Gln-Glu-Gln-Val-Ser-Pro-(I-Tyr)-Thr-Leu-Leu-Lys-Gly-[Compound 1] (2 mg in 2 ml water) and Xml of ^99mTc-pertechnetate in saline, with a radioactive concentration of 0.5 GBq/ml, from an Amertec II ^99mTc generator at room temperature. The activity was measured using an ion chamber. The RCP was measured using ITLC and HPLC. The results are shown in Table 3 for different values of X: […]

[3] = Prep 1, X 2 ml, 1.04 GBq, 255 min post-reconstitution
[4] = Prep 2, X 2 ml, 1 GBq, 15 min post-reconstitution
[5] = Prep 3, X 5 ml, 2.47 GBq, 15 min post-reconstitution

Substance	RCP by ITLC ([1]; Preparation 1: in solution, pH 8.5 borate buffer, room temperature) [%]	RCP by HPLC ([1]; Preparation 2: freeze-dried kit according to Example 10) [%]	RCP % (ITLC) ([2]; Prep 1, X 2 ml, 1.04 GBq, 15 min post-reconstitution) [%]	RCP % (HPLC) [2, 3] [%]	RCP % (ITLC) [2, 3] [%]	RCP % (HPLC) [2, 4] [%]	RCP % (ITLC) [2, 4] [%]	RCP % (HPLC) ([2]; Prep 2, X 2 ml, 1 GBq, 60 min post-reconstitution) [%]	RCP % (HPLC) [2, 5] [%]	RCP % (ITLC) [2, 5] [%]	RCP % (HPLC) ([2]; Prep 3, X 5 ml, 2.47 GBq, 150 min post-reconstitution) [%]	RCP % (ITLC) ([2]; Prep 4, X 2 ml, 1.02 GBq, 15 min post-reconstitution) [%]	RCP % (HPLC) ([2]; Prep 4, X 2 ml, 1.02 GBq, 140 min post-reconstitution) [%]
[Compound 1]-Cys-Cys-Glu-Leu-Cys-Cys-Asn-Pro-Ala-Cys-Ala-Cys-Tyr-OH ({Compound 1}-CCELCCNPACACY-OH; reading uncertain; also: cyclic, bridges not given here, printed as [Compound 1]-Cys-Cys-Glu-Leu-Cys-Cys-Asn-Pro-Ala-Cys-Ala-Cys-Tyr-OH) [Compound 9]	96	82											
Ac-Asn-Gln-Glu-Gln-Val-Ser-Pro-(I-Tyr)-Thr-Leu-Leu-Lys-Gly-[Compound 1] (chain 1 Ac-NQEQVSP; chain 2 TLLKG-{Compound 1}; not fully specified (C-terminus); reading uncertain; also: chains 1 and 2 joined in one chain through I-Tyr) [Compound 5, peptide-chelator conjugate of Compound 1 with thrombus-targeting peptide]			99.4	86.8	99.2	83.0	99.3	85.2	86.5	99.3	87.6	99.1	86.6

Reference: patent publication US8852550B2, “Chelator conjugates” (GE Healthcare Limited, priority 2001, dated 2014)
